Data: the supplement of paper PMC7125110
± gives the standard error. For part of these data: This sample holds only a part of the variants without activity.

B1: glmS ribozyme (parent)
chain: AUAAAAGCGCCAGAACUACAGAAAUGUAGUUGACGAGGAGGAGGUUUAUCGAAUUUUCGGCGGAUGCCUCCAAA

Tests used:
Settings in all cases: with glucosamine-6-phosphate
[1] = variants of: B1; assay: kcat; higher = faster cleavage; RNA array
Method in brief: (§1)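 kobs was derived by fitting per-tile medians to one- or two-exponential decays after normalising signals to baseline and to non-cleaving reference variants. Those signals came from barcoded ribozyme variants transcribed in situ by E. coli RNA polymerase on sequenced MiSeq chips, followed through a hybridised Cy3 probe at 37 °C and imaged over ~14 h. Glucosamine-6-phosphate (40 μM to 10 mM) in HEPES/KCl/Mg(OAc)2 buffer was flowed in. Weighted Michaelis–Menten fits across concentrations then gave kcat and KM.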

[2] = variants of: B1; assay: KM; higher = weaker cofactor use; RNA array
Method in brief: as §1

[3] = variants of: B1; assay: self-cleavage kobs at 40 uM GlcN6P; higher = faster cleavage; RNA array
Method in brief: as §1

[4] = variants of: B1; assay: self-cleavage kobs at 160 uM GlcN6P; higher = faster cleavage; RNA array
Method in brief: as §1

[5] = variants of: B1; assay: self-cleavage kobs at 640 uM GlcN6P; higher = faster cleavage; RNA array
Method in brief: as §1

[6] = variants of: B1; assay: self-cleavage kobs at 2500 uM GlcN6P; higher = faster cleavage; RNA array
Method in brief: as §1

[7] = variants of: B1; assay: self-cleavage kobs at 10000 uM GlcN6P; higher = faster cleavage; RNA array
Method in brief: as §1

Variant | kcat [1] [s⁻¹] | KM [2] [µM] | self-cleavage kobs at 40 uM GlcN6P [3] [s⁻¹] | self-cleavage kobs at 160 uM GlcN6P [4] [s⁻¹] | self-cleavage kobs at 640 uM GlcN6P [5] [s⁻¹] | self-cleavage kobs at 2500 uM GlcN6P [6] [s⁻¹] | self-cleavage kobs at 10000 uM GlcN6P [7] [s⁻¹]
C16G A39U | 0.00424 ± 0.00089 | 3090 ± 880 | 6.4e-05 ± 7.3e-06 | 0.000164 ± 2.2e-05 | 0.000895 ± 0.00011 | 0.00198 ± 0.00025 | 0.00316 ± 0.00031
A15G G59A | 0.000151 ± 1.1e-05 | 3440 ± 750 |  |  |  | 6.85e-05 ± 2.3e-05 | 0.000112 ± 1.5e-05
A39C U65C | 0.000473 ± 8.7e-05 | 2250 ± 770 |  |  | 0.000107 ± 2e-05 | 0.000311 ± 7.1e-05 | 0.000367 ± 6.1e-05
G38U C61G | < 1e-05 |  |  | < 1e-05 |  |  | 
G13C C58A | 0.000354 ± 6.9e-05 | 7610 ± 2700 |  |  | 4.16e-05 ± 9.2e-06 | 8e-05 ± 9.7e-06 | 0.000203 ± 1.3e-05
A14G A64C | 0.000278 ± 1.8e-05 | 906 ± 140 |  |  | 0.000118 ± 1.4e-05 | 0.000217 ± 3.3e-05 | 0.000247 ± 3e-05
U31C G40A | 0.00072 ± 0.00018 | 1300 ± 550 |  | 6.18e-05 ± 1.5e-05 | 0.000297 ± 4.4e-05 | 0.000647 ± 0.00012 | 0.000532 ± 0.0001
C58G C67A | 4.68e-05 ± 7.6e-06 |  |  |  | 6.09e-05 ± 1.3e-05 | 4.7e-05 ± 1.4e-05 | 3.78e-05 ± 1e-05
A48C G66U | 2.77e-05 ± 2.1e-07 | 2750 ± 61 |  |  |  |  | 
A6C G29C | < 1e-05 |  |  | < 1e-05 |  |  | 
G29A A48C | 3.13e-05 ± 8.9e-06 |  |  |  |  | 3.4e-05 ± 1.6e-05 | 
G66U C70G | 0.000127 ± 1.1e-05 | 550 ± 180 |  | 3.86e-05 ± 1.7e-05 | 5.98e-05 ± 1.4e-05 | 0.000112 ± 1.7e-05 | 0.000117 ± 1.9e-05
A6U A12U | 0.000909 ± 9.6e-05 | 2840 ± 510 |  | 6.32e-05 ± 1.6e-05 | 0.000158 ± 2.3e-05 | 0.000426 ± 4.8e-05 | 0.000715 ± 9.1e-05
U46C A53C | 0.002 ± 0.00044 | 1380 ± 480 | 7.57e-05 ± 1.7e-05 | 0.000151 ± 4e-05 | 0.000706 ± 0.00013 | 0.00155 ± 0.00033 | 0.00162 ± 0.0003
G37A U46C | 0.0015 ± 0.00029 | 4230 ± 1100 |  | 5.92e-05 ± 9.2e-06 | 0.000204 ± 3e-05 | 0.00046 ± 8e-05 | 0.00117 ± 0.00017
A52G C68A | 2.06e-05 ± 5.7e-06 |  |  |  |  |  | 
C16G C34U | < 1e-05 |  | < 1e-05 | < 1e-05 | < 1e-05 |  | < 1e-05

Variant | kcat [1] [s⁻¹] | KM [2] [µM] | self-cleavage kobs at 40 uM GlcN6P [3] [s⁻¹] | self-cleavage kobs at 160 uM GlcN6P [4] [s⁻¹] | self-cleavage kobs at 640 uM GlcN6P [5] [s⁻¹] | self-cleavage kobs at 2500 uM GlcN6P [6] [s⁻¹] | self-cleavage kobs at 10000 uM GlcN6P [7] [s⁻¹]
G13U A14G C61U C70G | 1.9e-05 ± 5.3e-06 |  |  |  |  |  | 
U31C G44U C67G | 0.00162 ± 0.00031 | 2430 ± 830 |  |  | 0.00032 ± 7.1e-05 | 0.0011 ± 0.00027 | 0.00124 ± 0.00024
U55A U57A | 0.000112 ± 3.7e-05 |  |  |  | 7.83e-05 ± 1.8e-05 | 8.45e-05 ± 2.7e-05 | 
U31C U54C | 0.00689 ± 0.0027 |  | 0.000101 ± 1.8e-05 | 0.000254 ± 4.6e-05 | 0.00134 ± 0.00024 | 0.00166 ± 0.00057 | 0.00579 ± 0.00087
U65C C67A | 0.000111 ± 9.5e-06 | 672 ± 220 |  |  | 6e-05 ± 1.4e-05 | 7.82e-05 ± 2.1e-05 | 0.000106 ± 1.6e-05
U30C U65G | 7.96e-05 ± 3.5e-06 | 1130 ± 230 |  |  | 3.09e-05 ± 1e-05 | 4.99e-05 ± 1.1e-05 | 7.23e-05 ± 6.6e-06
C10A A53G | 1.35e-05 ± 4.5e-06 |  | < 1e-05 | < 1e-05 |  |  | 
U65G C71G | 0.001 ± 0.00022 | 3670 ± 1100 | 2.64e-05 ± 9.6e-06 | 4.2e-05 ± 1e-05 | 0.000145 ± 1.5e-05 | 0.000413 ± 4.9e-05 | 0.000734 ± 0.00013
U54A U69G | 6.78e-05 ± 1.1e-05 |  |  | 6.31e-05 ± 2.8e-05 | 9.07e-05 ± 1.8e-05 | 9.01e-05 ± 1.6e-05 | 5.62e-05 ± 8.3e-06
C16G G40U | 0.00053 ± 2.1e-05 | 4960 ± 340 |  |  | 6.22e-05 ± 1.1e-05 | 0.000171 ± 2.7e-05 | 0.000357 ± 4.2e-05
C11A G32U | 5.22e-05 ± 2.5e-05 |  | < 1e-05 | < 1e-05 |  |  | 
G35C C50G G60U | 3.38e-05 ± 1.4e-05 |  |  | 5.86e-05 ± 1.9e-05 |  |  | 
G37U | < 1e-05 |  |  |  |  | < 1e-05 | < 1e-05
G37C | 5.32e-05 ± 1.7e-06 | 1380 ± 210 |  |  | 1.88e-05 ± 1.5e-06 | 3.22e-05 ± 1.5e-06 | 4.71e-05 ± 8.5e-07
U30G U56G | 0.00526 ± 0.0018 |  | 0.000182 ± 3.7e-05 |  | 0.00189 ± 0.00062 | 0.00266 ± 0.00073 | 0.00705 ± 0.0016
A12G G13A | 6.3e-05 ± 2.4e-06 | 3470 ± 390 |  |  |  | 2.7e-05 ± 9.7e-06 | 4.66e-05 ± 7.4e-06
A36G C71G | 1.32e-05 ± 3.6e-06 |  |  |  | < 1e-05 |  | 
